Test results: patent US20220348661A1 (HARBOUR BIOMED SHANGHAI, published 2022)

Target: T1, human ROR1 (human, UniProt Q01973 30-937)
T1 construct: whole, on cells; also called ROR1 on tumor cell Panc-1
Assay: flow cytometry on Panc-1 cells expressing human ROR1
Experimental: This Example investigates the ability of the bispecific antibody binding tumor cell Panc-1(ATCC, CRL-1469) expressing human ROR1. Specifically, collected cell Panc-1 suspension, adjusted the cell density to 1×10⁶/ml, and inoculated them at 100 μl/well in a 96 well V-bottom plate (Corning, #3894); subsequently, the antibody to be tested with a concentration 2-fold of final concentration obtained by 3-fold gradient dilution was added at volume of 100 μl/well. Cells were incubated at 4° C. in the dark for 2 hours. Afterwards, the cells were rinsed twice with 100 μl/well of pre-chilled PBS, centrifuged at 500 g, 4° C. for 5 minutes. The supernatant was discarded. Then added 100 μl/well of fluorescent secondary antibody Alexa Fluor 488 AffiniPure Goat Anti-Human IgG, Fcγ fragment specific (Jackson ImmunoResearch, #109-545-098), and incubated the cells from light at 4° C. in the dark for 1 hour. Then the cells were rinsed twice with 100 μl/well of pre-chilled PBS, centrifuged at 500 g, for 5 minutes. The supernatant was discarded. Finally, the cells were resuspended with 200 μL/well of pre-chilled PBS. The fluorescent luminescence signal value were read by flow cytometry (BD FACS CANTOII or ACEA NovoCyte), and the resulted data were processed and analyzed by software FlowJo v10 (FlowJo, LLC). […]

T1 sequence (Q01973 30-937): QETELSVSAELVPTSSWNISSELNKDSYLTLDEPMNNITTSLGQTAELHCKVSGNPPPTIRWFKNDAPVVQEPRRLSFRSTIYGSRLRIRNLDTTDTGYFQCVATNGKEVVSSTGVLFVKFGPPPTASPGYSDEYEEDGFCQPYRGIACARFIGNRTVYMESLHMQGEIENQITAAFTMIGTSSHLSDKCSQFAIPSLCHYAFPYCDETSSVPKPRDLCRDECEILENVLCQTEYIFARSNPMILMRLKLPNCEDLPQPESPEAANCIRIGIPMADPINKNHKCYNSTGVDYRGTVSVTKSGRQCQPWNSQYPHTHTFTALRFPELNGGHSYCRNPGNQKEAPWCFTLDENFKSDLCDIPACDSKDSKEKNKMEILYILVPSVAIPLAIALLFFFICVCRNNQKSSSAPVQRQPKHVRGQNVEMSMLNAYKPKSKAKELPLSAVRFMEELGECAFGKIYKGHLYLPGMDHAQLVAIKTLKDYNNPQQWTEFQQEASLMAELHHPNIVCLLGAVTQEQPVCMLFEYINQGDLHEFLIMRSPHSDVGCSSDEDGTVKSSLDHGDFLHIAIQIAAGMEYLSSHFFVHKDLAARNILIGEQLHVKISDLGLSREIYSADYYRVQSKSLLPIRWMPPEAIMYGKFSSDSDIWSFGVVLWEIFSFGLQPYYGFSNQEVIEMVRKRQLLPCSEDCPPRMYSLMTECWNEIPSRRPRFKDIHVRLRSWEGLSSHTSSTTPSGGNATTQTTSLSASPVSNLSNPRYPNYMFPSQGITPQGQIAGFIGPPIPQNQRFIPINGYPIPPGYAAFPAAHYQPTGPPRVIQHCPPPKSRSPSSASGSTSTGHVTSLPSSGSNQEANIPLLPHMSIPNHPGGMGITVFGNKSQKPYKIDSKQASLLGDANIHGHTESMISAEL

binding result: binds
B1: ROR1 antibody PR000374 (antibody, human IgG1, kappa, V domains shown)
VH: EVQLVESGGGLVQPGRSLRLSCTASGSDINDYPITWVRQAPGQGLEWIGFINSGGSTWYASWVKGRFTISRDDSKSIAYLQMNSLKTEDTAVYYCARGYSTYYRDFNIWGQGTLVTVSS
VL: DIQMTQSPSSLSASVGDRVTINCQASQSIDSNLAWFQQKPGQPPKLLIYRASNLASGVPDRFSGSGSGTDFTLTISSLEAEDVATYYCLGGVGAVSYRTSFGGGTKVEIKR
notes: variable region derived from WO2016094873; also called recombinant IgG antibody PR000374
